Target: rat perilipin A (62-kDa phosphoprotein of unstimulated rat adipocytes; 65/67-kDa forms after stimulation) (rat)
Settings: scale: ratio to 1

32P incorporation and shift in SDS-PAGE from 62-kDa to 65/67-kDa in isoproterenol-stimulated rat adipocytes: 5
Substance: cAMP-dependent protein kinase (enzyme)

Reference: patent publication US6074842
